Source: US20200283537A1 (published 2020)

Experiments:
[1] = target: T1, Recombinant DR5 (rDR5), extracellular domain of DR5/TRAIL-R2 fused to IgG4-Fc; assay: ELISA
[2] = target: T2, Recombinant FOLR1 (rFOLR1), extracellular domain of folate receptor alpha-1 fused to IgG4-Fc; assay: ELISA
[3] = target: T2, Recombinant FOLR1 (rFOLR1), …; assay: ELISA; remark: listed apart in the source
[4] = target: T2, Recombinant FOLR1 (rFOLR1), …; assay: BLI
[5] = target: T2, Recombinant FOLR1 (rFOLR1), …; assay: BLI; remark: listed apart in the source
[6] = target: T1, Recombinant DR5 (rDR5), extracellular …; assay: ELISA; remark: listed apart in the source
[7] = target: T1, Recombinant DR5 (rDR5), extracellular …; assay: BLI
[8] = target: T1, Recombinant DR5 (rDR5), extracellular …; assay: BLI; remark: listed apart in the source
[9] = target: T1, Recombinant DR5 (rDR5), extracellular …; assay: ELISA; remark: listed apart in the source
[10] = target: T1, Recombinant DR5 (rDR5), extracellular …; assay: ELISA; remark: listed apart in the source
[11] = target: T1, Recombinant DR5 (rDR5), extracellular …; assay: BLI; remark: listed apart in the source
[12] = target: T1, Recombinant DR5 (rDR5), extracellular …; assay: BLI; remark: listed apart in the source

Row | Binder | Kd [1] [nM] | Kd [2] [nM] | Kd [3] [nM] | Kd [4] [nM] | Kd [5] [nM] | Kd [10] [nM] | also measured
1 | BaCa-3 (dual-variable-domain bispecific, lexatumumab variable domains outer, farletuzumab inner) (bispecific antibody) heavy: not shown light: SSELTQDPAVSVALGQTVRITCQGDSLRSYYASWYQQKPGQAPVLVIYGKNNRPSGIPDRFSGSSSGNTASLTITGAQAEDEADYYCNSRDSSGNHVVFGGGTKLTVLGGSGGSGGSGGSDIQLTQSPSSLSASVGDRVTITCSVSSSISSNNLHWYQQKPGKAPKPWIYGTSNLASGVPSRFSGSGSGTDYTFTISSLQPEDIATYYCQQWSSYPYMYTFGQGTKVEIKRTVAAPSVFIFPPSDEQLKSGTASVVCLLNNFYPREAKVQWKVDNALQSGNSQESVTEQDSKDSTYSLSSTLTLSKADYEKHKVYACEVTHQGLSSPVTKSFNRGEC | 0.538 | 0.392 |  |  |  |  | 
2 | BaCa-2 (knob/hole single-chain-linked bispecific, monovalent anti-FOLR1 and anti-DR5) (bispecific antibody) chain 1: not shown chain 2: SSELTQDPAVSVALGQTVRITCQGDSLRSYYASWYQQKPGQAPVLVIYGKNNRPSGIPDRFSGSSSGNTASLTITGAQAEDEADYYCNSRDSSGNHVVFGGGTKLTVLRTVAAPSVFIFPPSDEQLKSGTASVVCLLNNFYPREAKVQWKVDNALQSGNSQESVTEQDSKDSTYSLSSTLTLSKADYEKHKVYACEVTHQGLSSPVTKSFNRGECGGGGSGGGGSGGGGSGGGGSGGGGSGGGGSGGGGSGGGGSGGGGSGGGGSEVQLVQSGGGVERPGGSLRLSCAASGFTFDDYGMSWVRQAPGKGLEWVSGINWNGGSTGYADSVKGRVTISRDNAKNSLYLQMNSLRAEDTAVYYCAKILGAGRGWYFDLWGKGTTVTVSSASTKGPSVFPLAPSSKSTSGGTAALGCLVKDYFPEPVTVSWNSGALTSGVHTFPAVLQSSGLYSLSSVVTVPSSSLGTQTYICNVNHKPSNTKVDKRVEPKSCDKTHTCPPCPAPELLGGPSVFLFPPKPKDTLMISRTPEVTCVVVDVSHEDPEVKFNWYVDGVEVHNAKTKPREEQYNSTYRVVSVLTVLHQDWLNGKEYKCKVSNKALPAPIEKTISKAKGQPREPQVYTLPPSREEMTKNQVSLTCLVKGFYPSDIAVEWESNGQPENNYKTTPPVLDSDGSFFLTSKLTVDKSRWQQGNVFSCSVMHEALHNRFTQKSLSLSPG | 1.08 | 0.0887 |  |  |  |  | 
3 | Farletuzumab (humanized anti-FOLR1 monoclonal antibody), recombinant human IgG1 (antibody, V domains shown) VH: EVQLVESGGGVVQPGRSLRLSCSASGFTFSGYGLSWVRQAPGKGLEWVAMISSGGSYTYYADSVKGRFAISRDNAKNTLFLQMDSLRPEDTGVYFCARHGDDPAWFAYWGQGTPVTVSS VL: DIQLTQSPSSLSASVGDRVTITCSVSSSISSNNLHWYQQKPGKAPKPWIYGTSNLASGVPSRFSGSGSGTDYTFTISSLQPEDIATYYCQQWSSYPYMYTFGQGTKVEIKR |  | 0.42 | 0.985 | 15 | 15 |  | 
4 | Lexatumumab (anti-TRAIL-R2/DR5 antibody), recombinant human IgG1 (antibody, V domains shown) VH: EVQLVQSGGGVERPGGSLRLSCAASGFTFDDYGMSWVRQAPGKGLEWVSGINWNGGSTGYADSVKGRVTISRDNAKNSLYLQMNSLRAEDTAVYYCAKILGAGRGWYFDLWGKGTTVTVSS VL: SSELTQDPAVSVALGQTVRITCQGDSLRSYYASWYQQKPGQAPVLVIYGKNNRPSGIPDRFSGSSSGNTASLTITGAQAEDEADYYCNSRDSSGNHVVFGGGTKLTVLG |  |  |  |  |  |  | Kd [6]: 0.518 nM; Kd [7]: 3.3 nM; Kd [8]: 3.3 nM; Kd [9]: 1.26 nM
5 | BaCa-1 (Bispecific-Anchored Cytotoxicity-Activator-1; farletuzumab IgG1 with a lexatumumab scFv at the C-terminus of the heavy chain) (bispecific antibody) heavy: not shown light: DIQLTQSPSSLSASVGDRVTITCSVSSSISSNNLHWYQQKPGKAPKPWIYGTSNLASGVPSRFSGSGSGTDYTFTISSLQPEDIATYYCQQWSSYPYMYTFGQGTKVEIKRTVAAPSVFIFPPSDEQLKSGTASVVCLLNNFYPREAKVQWKVDNALQSGNSQESVTEQDSKDSTYSLSSTLTLSKADYEKHKVYACEVTHQGLSSPVTKSFNRGEC | 0.73 | 0.61 | 1.21 | 12 | 12 | 1.41 | Kd [11]: 3.1 nM; Kd [12]: 3.1 nM
6 | BaCa antibody with LALA-Fc (L234A-L235A) mutations in the CH2 domain (bispecific antibody) heavy: EVQLVESGGGVVQPGRSLRLSCSASGFTFSGYGLSWVRQAPGKGLEWVAMISSGGSYTYYADSVKGRFAISRDNAKNTLFLQMDSLRPEDTGVYFCARHGDDPAWFAYWGQGTPVTVSSASTKGPSVFPLAPSSKSTSGGTAALGCLVKDYFPEPVTVSWNSGALTSGVHTFPAVLQSSGLYSLSSVVTVPSSSLGTQTYICNVNHKPSNTKVDKKVEPKSCDKTHTCPPCPAPEAAGGPSVFLFPPKPKDTLMISRTPEVTCVVVDVEHEDPEVKFNWYVDGVEVHNAKTKPREEQYNSTYRVVSVLTVLHQDWLNGKEYKCKVSNKALPAPIEKTISKAKGQPREPQVYTLPPSREEMTKNQVSLTCLVKGFYPSDIAVEWESNGQPENNYKTTPPVLDSDGSFFLYSKLTVDKSRWQQGNVFSCSVMHEALHNHYTQKSLSLSLGKGGGSGGGSGGGSSSELTQDPAVSVALGQTVRITCQGDSLRSYYASWYQQKPGQAPVLVIYGKNNRPSGIPDRFSGSSSGNTASLTITGAQAEDEADYYCNSRDSSGNHVVFGGGTKLTVLGGGGSGGGDSGGGGSGGGGSEVQLVQSGGGVERPGGSLRLSCAASGFTFDDYGMSWVRQAPGKGLEWVSGINWNGGSTGYADSVKGRVTISRDNAKNSLYLQMNSLRAEDTAVYYCAKILGAGRGWYFDLWGKGTTVTVSS light: DIQLTQSPSSLSASVGDRVTITCSVSSSISSNNLHWYQQKPGKAPKPWIYGTSNLASGVPSRFSGSGSGTDYTFTISSLQPEDIATYYCQQWSSYPYMYTFGQGTKVEIKRTVAAPSVFIFPPSDEQLKSGTASVVCLLNNFYPREAKVQWKVDNALQSGNSQESVTEQDSKDSTYSLSSTLTLSKADYEKHKVYACEVTHQGLSSPVTKSFNRGEC |  |  | 0.904 |  |  | 1.65 | 
